This is an account of results in patent publication US20200115416A1 (REGENTS OF THE UNIVERSITY OF MINNESOTA, published 2020).

Holding throughout (assay): cell-based or functional assay
Test [1] addresses T1, mouse melanocortin-1 receptor (mouse, UniProt Q01727 1-315).
In test [2] the target is mouse melanocortin-3 receptor (mouse, UniProt P33033 1-323).
Test [3] has as its target mouse melanocortin-4 receptor (mouse, UniProt P56450 1-332).
The target in test [4] is mouse melanocortin-5 receptor (mouse, UniProt P41149 1-325).
Test [5] addresses T1, mouse melanocortin-1 receptor. This is another data set of the same source.

Square brackets hold non-standard residues; d marks the D form. hPhe = N[C@@H](CCc1ccccc1)C(=O)O; Nle = CCCC[C@H](N)C(=O)O Some results are limits rather than exact numbers.

Chain of mouse melanocortin-3 receptor (P33033 whole entry): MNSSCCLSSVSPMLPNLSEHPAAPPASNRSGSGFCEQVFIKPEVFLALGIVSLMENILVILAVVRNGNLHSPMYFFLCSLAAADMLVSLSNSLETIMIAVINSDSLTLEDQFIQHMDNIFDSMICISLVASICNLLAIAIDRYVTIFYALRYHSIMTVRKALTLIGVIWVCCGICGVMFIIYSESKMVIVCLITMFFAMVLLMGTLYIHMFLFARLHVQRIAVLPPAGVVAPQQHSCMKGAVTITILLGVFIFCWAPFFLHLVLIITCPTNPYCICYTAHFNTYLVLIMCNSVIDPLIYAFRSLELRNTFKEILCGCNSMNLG
Chain of mouse melanocortin-4 receptor (P56450 whole entry): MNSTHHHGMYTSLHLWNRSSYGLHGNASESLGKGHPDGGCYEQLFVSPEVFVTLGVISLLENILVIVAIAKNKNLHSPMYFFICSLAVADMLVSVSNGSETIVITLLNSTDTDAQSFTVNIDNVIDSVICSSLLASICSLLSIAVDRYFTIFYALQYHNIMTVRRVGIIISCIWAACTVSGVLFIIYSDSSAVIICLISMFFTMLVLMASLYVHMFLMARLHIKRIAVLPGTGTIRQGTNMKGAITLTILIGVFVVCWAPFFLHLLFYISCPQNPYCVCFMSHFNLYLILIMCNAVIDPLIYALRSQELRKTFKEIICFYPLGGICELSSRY
T1 sequence (Q01727 whole entry): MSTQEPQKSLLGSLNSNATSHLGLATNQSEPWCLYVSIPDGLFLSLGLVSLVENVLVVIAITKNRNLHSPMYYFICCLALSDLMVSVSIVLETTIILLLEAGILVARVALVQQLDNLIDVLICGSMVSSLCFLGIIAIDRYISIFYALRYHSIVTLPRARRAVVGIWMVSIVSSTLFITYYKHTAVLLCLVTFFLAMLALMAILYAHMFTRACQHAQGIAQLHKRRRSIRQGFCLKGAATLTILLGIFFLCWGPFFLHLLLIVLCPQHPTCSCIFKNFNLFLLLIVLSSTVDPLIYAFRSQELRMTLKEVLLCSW
Chain of mouse melanocortin-5 receptor (P41149 whole entry): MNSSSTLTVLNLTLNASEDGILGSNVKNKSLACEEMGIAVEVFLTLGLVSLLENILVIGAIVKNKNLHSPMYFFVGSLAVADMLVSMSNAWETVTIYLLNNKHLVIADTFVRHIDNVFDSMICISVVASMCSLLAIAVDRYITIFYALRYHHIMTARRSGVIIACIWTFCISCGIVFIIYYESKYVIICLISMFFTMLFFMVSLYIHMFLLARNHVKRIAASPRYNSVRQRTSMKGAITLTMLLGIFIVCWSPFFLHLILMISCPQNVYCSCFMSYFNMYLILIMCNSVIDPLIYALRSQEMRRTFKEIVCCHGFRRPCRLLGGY

Regarding cyclo(PRFF[Nle]AF[dP]) [c[Pro-Arg-Phe-Phe-Nle-Ala-Phe-DPro]], the “agonist EC50 (cAMP AlphaScreen)” value in test [1], in test [2], in test [3] and in test [4] was > 100 µM each time. Besides, the figures for the “antagonist pA2 (Schild, agonist NDP-MSH)” value in test [2] and in test [3] were < 5.5 and 6.9, respectively.

B1: c[Pro-Arg-Phe-Phe-His-Ala-Phe-DPro] (peptide)
peptide: cyclo(PRFFHAF[dP])
SMILES: C[C@@H]1NC(=O)[C@H](Cc2c[nH]cn2)NC(=O)[C@H](Cc2ccccc2)NC(=O)[C@H](Cc2ccccc2)NC(=O)[C@H](CCCNC(=N)N)NC(=O)[C@@H]2CCCN2C(=O)[C@H]2CCCN2C(=O)[C@H](Cc2ccccc2)NC1=O
B1: the “agonist EC50 (cAMP AlphaScreen)” value in test [1] is > 100 µM. For the same molecule, in test [2], the “agonist EC50 (cAMP AlphaScreen)” value was > 100 µM and the “antagonist pA2 (Schild, agonist NDP-MSH)” value is 6.46. Further, in test [4], the “inverse agonist apparent potency” value was 0.01 µM and the “inverse agonist, % decrease from basal cAMP” value (from here on “inverse agonist, % decrease”) was -15%.
Regarding cyclo(PRFFVAF[dP]) [c[Pro-Arg-Phe-Phe-Val-Ala-Phe-DPro]], the “% maximal NDP-MSH response at 100 µM (cAMP AlphaScreen)” value (shortened to “% maximal NDP-MSH response at 100 µM”) in test [1] amounted to 55%. Besides, in test [2], the “agonist EC50 (cAMP AlphaScreen)” value was > 100 µM and the “antagonist pA2 (Schild, agonist NDP-MSH)” value is < 5.5. Further, in test [3], the “agonist EC50 (cAMP AlphaScreen)” value was > 100 µM and the “antagonist pA2 (Schild, agonist NDP-MSH)” value is 5.9. In test [4], the “inverse agonist apparent potency” value came out at 0.51 µM and the “inverse agonist, % decrease” value is -25%.

B2: c[Pro-Arg-Phe-Phe-Phe-Ala-Phe-DPro] (peptide)
peptide: cyclo(PRFFFAF[dP])
SMILES: C[C@@H]1NC(=O)[C@H](Cc2ccccc2)NC(=O)[C@H](Cc2ccccc2)NC(=O)[C@H](Cc2ccccc2)NC(=O)[C@H](CCCNC(=N)N)NC(=O)[C@@H]2CCCN2C(=O)[C@H]2CCCN2C(=O)[C@H](Cc2ccccc2)NC1=O
B2: the “agonist EC50 (cAMP AlphaScreen)” value in test [1], in test [2], in test [3] and in test [4] was > 100 µM in each case. Besides, the “antagonist pA2 (Schild, agonist NDP-MSH)” value in test [2] was < 5.5; in test [3], 6.63.

B3: c[Pro-Arg-Phe-Phe-Asn-Gly-Phe-DPro] (peptide)
peptide: cyclo(PRFFNGF[dP])
SMILES: N=C(N)NCCC[C@@H]1NC(=O)[C@@H]2CCCN2C(=O)[C@H]2CCCN2C(=O)[C@H](Cc2ccccc2)NC(=O)CNC(=O)[C@H](CC(N)=O)NC(=O)[C@H](Cc2ccccc2)NC(=O)[C@H](Cc2ccccc2)NC1=O
On to B3, for which the “agonist EC50 (cAMP AlphaScreen)” value in test [1], in test [2] and in test [3] was > 100 µM throughout. The “antagonist pA2 (Schild, agonist NDP-MSH)” value is < 5.5 in test [2] and 6.1 in test [3]. The “inverse agonist, % change from basal cAMP at 100 µM” value (“inverse agonist, % change” below) in test [4] is -35%.

B4: c[Pro-Arg-Phe-Phe-Asn-Leu-Phe-DPro] (peptide)
peptide: cyclo(PRFFNLF[dP])
SMILES: CC(C)C[C@@H]1NC(=O)[C@H](CC(N)=O)NC(=O)[C@H](Cc2ccccc2)NC(=O)[C@H](Cc2ccccc2)NC(=O)[C@H](CCCNC(=N)N)NC(=O)[C@@H]2CCCN2C(=O)[C@H]2CCCN2C(=O)[C@H](Cc2ccccc2)NC1=O
Turning to B4, the “% maximal NDP-MSH response at 100 µM” value amounted to 80% in test [1], 25% in test [2] and 25% in test [3]. Moreover, the entries for the “antagonist pA2 (Schild, agonist NDP-MSH)” value in test [2] and in test [3] were < 5.5 and 6.18, respectively. The “agonist EC50 (cAMP AlphaScreen)” value in test [4] is > 100 µM.

B5: c[Pro-Arg-Phe-Phe-Asn-Ala-Ala-DPro] (peptide)
peptide: cyclo(PRFFNAA[dP])
SMILES: C[C@@H]1NC(=O)[C@H](CC(N)=O)NC(=O)[C@H](Cc2ccccc2)NC(=O)[C@H](Cc2ccccc2)NC(=O)[C@H](CCCNC(=N)N)NC(=O)[C@@H]2CCCN2C(=O)[C@H]2CCCN2C(=O)[C@H](C)NC1=O
In the case of B5, the “agonist EC50 (cAMP AlphaScreen)” value in test [1], in test [2] and in test [3] was > 100 µM each time. Also, the “antagonist pA2 (Schild, agonist NDP-MSH)” value in test [2] is 6.1; in test [3], 8.16. Further, the “inverse agonist, % change” value in test [4] was -25%.

B6: c[Pro-Arg-Phe-Phe-Asn-His-Phe-DPro] (peptide)
peptide: cyclo(PRFFNHF[dP])
SMILES: N=C(N)NCCC[C@@H]1NC(=O)[C@@H]2CCCN2C(=O)[C@H]2CCCN2C(=O)[C@H](Cc2ccccc2)NC(=O)[C@H](Cc2c[nH]cn2)NC(=O)[C@H](CC(N)=O)NC(=O)[C@H](Cc2ccccc2)NC(=O)[C@H](Cc2ccccc2)NC1=O
For B6, the “agonist EC50 (cAMP AlphaScreen)” value in test [1] was 2.6 µM; in test [2], > 100 µM; in test [3], > 100 µM; in test [4], > 100 µM. Further, the figures for the “antagonist pA2 (Schild, agonist NDP-MSH)” value in test [2] and in test [3] were < 5.5 and 6.07, respectively.

B7: c[Pro-Arg-Phe-Phe-Trp-Ala-Phe-DPro] (peptide)
peptide: cyclo(PRFFWAF[dP])
SMILES: C[C@@H]1NC(=O)[C@H](Cc2c[nH]c3ccccc23)NC(=O)[C@H](Cc2ccccc2)NC(=O)[C@H](Cc2ccccc2)NC(=O)[C@H](CCCNC(=N)N)NC(=O)[C@@H]2CCCN2C(=O)[C@H]2CCCN2C(=O)[C@H](Cc2ccccc2)NC1=O
In the case of B7, the “% maximal NDP-MSH response at 100 µM” value in test [1] was determined as 80%; in test [2], 40%; in test [3], 50%. Moreover, the figures for the “antagonist pA2 (Schild, agonist NDP-MSH)” value in test [2] and in test [3] were 5.7 and 6.81, respectively. The “inverse agonist apparent potency” value in test [4] came out at 0.15 µM. The “inverse agonist, % decrease” value in test [4] is -20%.

B8: c[Pro-Arg-Phe-Phe-Asn-Asp-Phe-DPro] (peptide)
peptide: cyclo(PRFFNDF[dP])
SMILES: N=C(N)NCCC[C@@H]1NC(=O)[C@@H]2CCCN2C(=O)[C@H]2CCCN2C(=O)[C@H](Cc2ccccc2)NC(=O)[C@H](CC(=O)O)NC(=O)[C@H](CC(N)=O)NC(=O)[C@H](Cc2ccccc2)NC(=O)[C@H](Cc2ccccc2)NC1=O
Turning to B8, the “% maximal NDP-MSH response at 100 µM” value in test [1] was 65%. Besides, in test [2], the “agonist EC50 (cAMP AlphaScreen)” value is > 100 µM and the “antagonist pA2 (Schild, agonist NDP-MSH)” value was < 5.5. For the same molecule, in test [3], the “agonist EC50 (cAMP AlphaScreen)” value is > 100 µM and the “antagonist pA2 (Schild, agonist NDP-MSH)” value is < 5.5. In test [4], the “inverse agonist, % change” value is -25%.

B9: c[Pro-Arg-Phe-Phe-Asn-Phe-Phe-DPro] (peptide)
peptide: cyclo(PRFFNFF[dP])
SMILES: N=C(N)NCCC[C@@H]1NC(=O)[C@@H]2CCCN2C(=O)[C@H]2CCCN2C(=O)[C@H](Cc2ccccc2)NC(=O)[C@H](Cc2ccccc2)NC(=O)[C@H](CC(N)=O)NC(=O)[C@H](Cc2ccccc2)NC(=O)[C@H](Cc2ccccc2)NC1=O
For B9, the “% maximal NDP-MSH response at 100 µM” value in test [1] was 70%; in test [2], 35%; in test [3], 35%; in test [4] it was 25%. For the same molecule, the results for the “antagonist pA2 (Schild, agonist NDP-MSH)” value in test [2] and in test [3] were 5.72 and 5.71, respectively.

B10: c[Pro-Arg-Phe-Phe-Asn-Glu-Phe-DPro] (peptide)
peptide: cyclo(PRFFNEF[dP])
SMILES: N=C(N)NCCC[C@@H]1NC(=O)[C@@H]2CCCN2C(=O)[C@H]2CCCN2C(=O)[C@H](Cc2ccccc2)NC(=O)[C@H](CCC(=O)O)NC(=O)[C@H](CC(N)=O)NC(=O)[C@H](Cc2ccccc2)NC(=O)[C@H](Cc2ccccc2)NC1=O
Consider B10, for which, in test [1], the “% maximal NDP-MSH response at 100 µM” value turned out to be 60%. Also, the “agonist EC50 (cAMP AlphaScreen)” value in test [2], in test [3] and in test [4] was > 100 µM each time. Further, the “antagonist pA2 (Schild, agonist NDP-MSH)” value in test [2] and in test [3] was < 5.5 throughout.

B11: c[Pro-Arg-Phe-Phe-Thr-Ala-Phe-DPro] (peptide)
peptide: cyclo(PRFFTAF[dP])
SMILES: C[C@@H]1NC(=O)[C@H]([C@@H](C)O)NC(=O)[C@H](Cc2ccccc2)NC(=O)[C@H](Cc2ccccc2)NC(=O)[C@H](CCCNC(=N)N)NC(=O)[C@@H]2CCCN2C(=O)[C@H]2CCCN2C(=O)[C@H](Cc2ccccc2)NC1=O
Take B11: the “agonist EC50 (cAMP AlphaScreen)” value in test [1], in test [2] and in test [3] was > 100 µM each time. The “antagonist pA2 (Schild, agonist NDP-MSH)” value was 6.4 in test [2] and 7.76 in test [3]. In test [4], the “inverse agonist apparent potency” value was 0.05 µM. Moreover, the “inverse agonist, % decrease” value in test [4] is -20%.
For cyclo(PRF[hPhe]NAF[dP]) [c[Pro-Arg-Phe-hPhe-Asn-Ala-Phe-DPro]], the “% receptor stimulation at 100 µM (cAMP AlphaScreen)” value in test [5] was 35%.

B12: c[Pro-Arg-Phe-Phe-Asn-Lys-Phe-DPro] (peptide)
peptide: cyclo(PRFFNKF[dP])
SMILES: N=C(N)NCCC[C@@H]1NC(=O)[C@@H]2CCCN2C(=O)[C@H]2CCCN2C(=O)[C@H](Cc2ccccc2)NC(=O)[C@H](CCCCN)NC(=O)[C@H](CC(N)=O)NC(=O)[C@H](Cc2ccccc2)NC(=O)[C@H](Cc2ccccc2)NC1=O
In the case of B12, the “% maximal NDP-MSH response at 100 µM” value in test [1] worked out at 60%; in test [2], 45%; in test [4] it was 45%. In addition, the “antagonist pA2 (Schild, agonist NDP-MSH)” value in test [2] was < 5.5; in test [3], 6.11. Besides, in test [3], the “agonist EC50 (cAMP AlphaScreen)” value was > 100 µM.
